Measurements from patent US20240261340A1, “Cutibacterium Acnes Biomimetic, Prebiotic, Probiotic and Postbiotic Compositions for Treatment of Skin Conditions” (Johnson & Johnson Consumer Inc., priority 2023, published 2024).

Tested on: Normal Human Epidermal Keratinocytes (NHEK)
Assay: Lipid accumulation fluorescence assay (AdipoRed) on NHEK total lipids
Assay type: cell-based
Conditions: 10 μg/ml, positive control
Description: Lipid accumulation using a fluorescence assay was then assessed. In particular, following the results of the transcriptomic analysis, NHEK were treated for 6 days with conditioned media at concentrations of 0.1, 0.5, 1, and 2%. Adiponectin 10 μg/ml (Sigma, St Quentin Fallavier, France), known in the literature to induce lipid production in cell cultures, was used as positive control. To quantify and visualize total lipids after the 6 days of treatment, cells were treated with AdipoRed™ Assay Reagent (Lonza, Verviers, Belgium) a lipophilic reagent which fluoresces (excitation: 485 nm, emission: 572 nm). The intensity of the fluorescence is proportional to the lipid concentration and can be measured using a spectrophotometer (Envision, Perlin Elmer, Villebon-sur-Yvette, France). Images were acquired using a fluorescence microscope (Axio imager, ZEISS, Rueil Malmaison France) with magnification ×20.
Adiponectin induced an increase in fluorescence signal after 6 days of treatment (+25%) which validated the test. […] This experiment was repeated increasing the concentration of the conditioned media to 5% and 10% and reducing the time of treatment to 1 day. Non-conditioned media at 5% and 10% were also tested as negative controls and Adiponectin (10 μg/ml) as positive control.

B1: Adiponectin (protein, UniProt Q15848 19-244, looked up)
Adiponectin: ETTTQGPGVLLPLPKGACTGWMAGIPGHPGHNGAPGRDGRDGTPGEKGEKGDPGLIGPKGDIGETGVPGAEGPRGFPGIQGRKGEPGEGAYVYRSAFSVGLETYVTIPNMPIRFTKIFYNQQNHYDGSTGKFHCNIPGLYYFAYHITVYMKDVKVSLFKKDKAMLFTYDQYQENNVDQASGSVLLHLEVGDQVWLQVYGEGERNGLYADNDNDSTFTGFLLYHDTN
notes: known in the literature to induce lipid production in cell cultures; positive control (Sigma)
increase in fluorescence (total lipids) (1 day of treatment): 250% | increase in fluorescence signal (total lipids) (6 days of treatment): +25%
